Measurements as given in patent US20140234339A1 (JULIUS MAXIMILIANS UNIVERSIT T W RZBURG, published 2014).

Key:
[1] = target: T1, IsaA (immunodominant structure IsaA of Staphylococcus aureus) (Staphylococcus aureus, UniProt P99160 30-233, limits assumed); assay: SPR (BIACORE 2000), UK66-2 captured via anti-Fab antibody, IsaA as analyte, 25 C, 1:1 Langmuir fit
T1 construct: The ELISA text calls it soluble recombinant IsaA; also called IsaA antigen; soluble recombinant IsaA
T1 sequence (looked up): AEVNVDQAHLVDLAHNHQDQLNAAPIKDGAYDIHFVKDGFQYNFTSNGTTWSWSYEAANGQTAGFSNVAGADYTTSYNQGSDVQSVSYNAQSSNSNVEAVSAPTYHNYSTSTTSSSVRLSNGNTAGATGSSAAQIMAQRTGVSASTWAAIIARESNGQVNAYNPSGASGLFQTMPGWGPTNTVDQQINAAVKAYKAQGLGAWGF

[2] = target: T1, IsaA (immunodominant structure IsaA of …); assay: SPR (BIACORE 2000), UK66-2 captured via anti-Fab antibody, IsaA as analyte, 25 C, 1:1 Langmuir fit, two independent measurements

B1: antibody UK66-2 (antibody, V domains shown)
VH: EVQLLESGGGLVQPGGSLRLSCAASGFTFSNYYMSWVRQAPGKGLEWVSDINGNGGSTYYPDTVKGRFTISRDNSKNTLYLQMNSLRAEDTAVYYCVRRGGYYALDYWGQGTTVTVSS
VL: DVVMTQTPLSLSVTPGQPASISCRSSQSLVHINGNTYLHWYLQKPGQSPQLLIYRVSNRFSGVPDRFSGSGSGTDFTLKISRVEAEDVGVYYCSQSTHVPWTFGGGTKLELKR
notes: In the SPR assay it was captured by an anti-Fab antibody; also called anti-IsaA antibody UK66-2
Q: Which results are given for B1?
A: koff [1]: 0.0018 s⁻¹; kon [1]: 370000 M⁻¹ s⁻¹; Kd [2]: 4.8 nM
